Source: patent US7262177B2, “Conjugates of glycosylated/galactosylated peptide, bifunctional linker, and nucleotidic monomers/polymers, and related compositions and methods of use” (priority 2000, dated 2007)

Legend:
Hep G2 cells = assay: Cellular uptake of 5FU 1-mer conjugates by Hep G2 cells; format: cell-based, human
Protocol: Hep G2 cells were passaged into 2 cm^2 wells and grown in RPMI 1640 medium, which was supplemented with L-glutamine (10-040, CV) to a density of 0.3×10^6 to 0.4×10^6 cells per well (48-well cluster plate, Costar, Cambridge, Mass.). […] Then, an aliquot of the medium was saved for scintillation counting and the remainder of the medium aspirated from the well. The cells were washed with D-PBS (2×0.5 ml), treated with 0.25% trypsin (37° C., 2 minutes; trypsin prepared in HBSS with 1.0 mM EDTA) and suspended in fresh growth medium containing 10% FCS. The suspended cells were layered over silicon oil (0.5 ml) in a 1.7 ml conical microcentrifuge tube and pelleted by centrifugation at 14,000 rpm (12,000 g) for 30 seconds. The supernatant was carefully decanted and the cell pellet was lysed with 100 μl of a solution containing 0.5% NP 40, 100 mM sodium chloride, 14 mM Tris/HCl and 30% acetonitrile. The amount of radioactivity, and by inference the amount of neoglycoconjugate or oligomer associated with the cell lysate, was determined by scintillation counting.

[1] = Hepatic and systemic toxicity, 4 weekly bolus injections; format: in vivo, CD-1 mice
Protocol: Mice have previously been used as in vivo models for 5FU drug testing in the following manner (Ain et al., J. Surg. Res., 57, 366-372 (1994); Wang et al., Cancer Res., 50, 869s-872s (1990)). The plasma profiles, induced toxicities and pharmacokinetics of 5FU in mice are similar to those observed in humans (Wagner et al., Cancer Res., 46, 1499-1506 (1986)). Both po 1-mer and 5FdU were administered on a clinically relevant regimen of 4 weekly bolus injections via the tail vein (Anfield et al., Cancer, 39, 34-40 (1977)). The starting doses of 10 mg/kg and 15 mg/kg were determined by extrapolation of the in vitro data. One week after each injection, a cohort of animals (6 animals/dose/treatment) was sacrificed. Blood and liver samples were collected from each animal and assayed for hepatic and systemic toxicities. The blood sample analyses included a Superchem panel and a total blood count. The Superchem panel assayed blood levels of glucose, urea nitrogen (BUN), creatinine, total protein, albumin, both conjugated and unconjugated bilirubin, triglycerides, SGOT, SGPT, triglycerides, CPK, alkaline phosphatase, and peripheral blood differentials. Total blood counts were analyzed for hematocrit, as well as both red and white blood cell counts. Liver samples were subjected to histological analysis in order to determine changes in morphology, architecture and increase in necrotic tissue as compared to the controls. Any acute or sustained increases in blood counts or serum components indicative of organ damage in comparison with the untreated control was taken to be indicative of a toxic response. In addition, the weights of each cohort were recorded throughout the treatment period as an indication of their clinical condition.

[2] = 10 mg/kg weekly, WEEK 6 (treatment stopped for two weeks)

Structure (SMILES): CC(=O)N[C@H]1[C@H](OCCCCCCNC(=O)CC[C@H](NC(=O)CC[C@H](NC(=O)[C@H](Cc2ccc(O)cc2)NC(=O)C2CCC(CN3C(=O)CC(SCCCCCCOP(=O)(O)OC[C@H]4O[C@@H](n5cc(F)c(=O)[nH]c5=O)C[C@@H]4O)C3=O)CC2)C(=O)NCCCCCCO[C@@H]2O[C@H](CO)[C@H](O)[C@H](O)[C@H]2NC(C)=O)C(=O)NCCCCCCO[C@@H]2O[C@H](CO)[C@H](O)[C@H](O)[C@H]2NC(C)=O)O[C@H](CO)[C@H](O)[C@@H]1O (stereo partly drawn) [po 1-mer, YEE(ahGalNAc)3-SMCC-poFU]
- cellular uptake (Hep G2 cells; 1 μM, 30 min): 5 pmoles/million cells
- cellular uptake (Hep G2 cells; 1 μM, 480 min): 24.75 pmoles/10^6 cells
- cellular uptake (peak) (Hep G2 cells; 1 μM, 480 min): 25 pmoles/million cells
- cellular uptake (Hep G2 cells; 2 μM, 480 min): about 26 pmole/10^6 cells
- maximal cellular uptake (Hep G2 cells; 4 μM): 36 pmoles/million cells
- maximum cellular uptake (Hep G2 cells; 4 μM, 480 min): about 36 pmoles/10^6 cells
- maximal cellular uptake (Hep G2 cells; 8 μM): 43 pmoles/million cells
- cellular uptake (Hep G2 cells; 8 μM, 120 min): 35 pmoles/10^6 cells
- maximum cellular uptake (Hep G2 cells; 8 μM, 480 min): ~42 pmoles/10^6 cells
- histological analysis of liver ([1]; 10 mg/kg weekly): mild hepatocellular swelling
- increased total bilirubin and gamma-glutamyl transferase (GT) levels ([1]; 10 mg/kg weekly): not observed
- lactate dehydrogenase levels ([1]; 10 mg/kg weekly): increased
- BUN ([1]; 10 mg/kg weekly, WEEK 1): 24.66 mg/dL
- Calcium ([1]; 10 mg/kg weekly, WEEK 1): 7.56 mg/dL
- Chloride ([1]; 10 mg/kg weekly, WEEK 1): 106.33 meq/l
- MCH ([1]; 10 mg/kg weekly, WEEK 1): 17.2 pg
- MCV ([1]; 10 mg/kg weekly, WEEK 1): 51.5 fL
- Potassium ([1]; 10 mg/kg weekly, WEEK 1): 11.63 meq/l
- SGOT ([1]; 10 mg/kg weekly, WEEK 1): 335.5 u/l
- SGPT ([1]; 10 mg/kg weekly, WEEK 1): 46.5 u/l
- Sodium ([1]; 10 mg/kg weekly, WEEK 1): 155.6 meq/l
- WBC ([1]; 10 mg/kg weekly, WEEK 1): 4.86 thds/cmm
- BUN ([1]; 10 mg/kg weekly, WEEK 2): 18 mg/dL
- Calcium ([1]; 10 mg/kg weekly, WEEK 2): 7.75 mg/dL
- Chloride ([1]; 10 mg/kg weekly, WEEK 2): 95 meq/l
- MCH ([1]; 10 mg/kg weekly, WEEK 2): 15.6 pg
- MCV ([1]; 10 mg/kg weekly, WEEK 2): 51 fL
- Potassium ([1]; 10 mg/kg weekly, WEEK 2): 11.1 meq/l
- SGOT ([1]; 10 mg/kg weekly, WEEK 2): 911.33 u/l
- SGPT ([1]; 10 mg/kg weekly, WEEK 2): 110 u/l
- Sodium ([1]; 10 mg/kg weekly, WEEK 2): 142.5 meq/l
- WBC ([1]; 10 mg/kg weekly, WEEK 2): 3.16 thds/cmm
- BUN ([1]; 10 mg/kg weekly, WEEK 3): 22 mg/dL
- Calcium ([1]; 10 mg/kg weekly, WEEK 3): 8.85 mg/dL
- Chloride ([1]; 10 mg/kg weekly, WEEK 3): 87.5 meq/l
- MCH ([1]; 10 mg/kg weekly, WEEK 3): 16.56 pg
- MCV ([1]; 10 mg/kg weekly, WEEK 3): 56 fL
- Potassium ([1]; 10 mg/kg weekly, WEEK 3): 8.9 meq/l
- SGOT ([1]; 10 mg/kg weekly, WEEK 3): 1174 u/l
- SGPT ([1]; 10 mg/kg weekly, WEEK 3): 177 u/l
- Sodium ([1]; 10 mg/kg weekly, WEEK 3): 152.5 meq/l
- WBC ([1]; 10 mg/kg weekly, WEEK 3): 2.8 thds/cmm
- BUN ([1]; 10 mg/kg weekly, WEEK 4): 21.33 mg/dL
- Calcium ([1]; 10 mg/kg weekly, WEEK 4): 6.5 mg/dL
- Chloride ([1]; 10 mg/kg weekly, WEEK 4): 86.66 meq/l
- MCH ([1]; 10 mg/kg weekly, WEEK 4): 16.42 pg
- MCV ([1]; 10 mg/kg weekly, WEEK 4): 52.83 fL
- Potassium ([1]; 10 mg/kg weekly, WEEK 4): 12.46 meq/l
- SGOT ([1]; 10 mg/kg weekly, WEEK 4): 1549.5 u/l
- SGPT ([1]; 10 mg/kg weekly, WEEK 4): 125.66 u/l
- Sodium ([1]; 10 mg/kg weekly, WEEK 4): 161.6 meq/l
- WBC ([1]; 10 mg/kg weekly, WEEK 4): 1.83 thds/cmm
- BUN [1, 2]: 22.44 mg/dL
- Calcium [1, 2]: 7.7 mg/dL
- Chloride [1, 2]: 89.72 meq/l
- MCH [1, 2]: 16.1 pg
- MCV [1, 2]: 51.18 fL
- Potassium [1, 2]: 10.82 meq/l
- SGOT [1, 2]: 1211.61 u/l
- SGPT [1, 2]: 137.55 u/l
- Sodium [1, 2]: 162.22 meq/l
- WBC [1, 2]: 3.03 thds/cmm
- weight gain ([1]; 10 mg/kg weekly, four week period): progressive and similar to the saline-treated control mice
- complete blood count: platelets ([1]; 15 mg/kg weekly): mild thrombocytopenia
- histological analysis of liver ([1]; 15 mg/kg weekly): mild hepatocellular swelling and limited subcapsular fibrosis in one mouse
- increased total bilirubin and gamma-GT levels ([1]; 15 mg/kg weekly): not observed
- lactate dehydrogenase levels ([1]; 15 mg/kg weekly): increased
- weight gain ([1]; 15 mg/kg weekly): somewhat less than the untreated control mice
- BUN ([1]; 15 mg/kg weekly, WEEK 1): 26 mg/dL
- Calcium ([1]; 15 mg/kg weekly, WEEK 1): 9.15 mg/dL
- Chloride ([1]; 15 mg/kg weekly, WEEK 1): 101.33 meq/l
- MCH ([1]; 15 mg/kg weekly, WEEK 1): 16.83 pg
- MCV ([1]; 15 mg/kg weekly, WEEK 1): 50 fL
- Potassium ([1]; 15 mg/kg weekly, WEEK 1): 8.9 meq/l
- SGOT ([1]; 15 mg/kg weekly, WEEK 1): 730 u/l
- SGPT ([1]; 15 mg/kg weekly, WEEK 1): 67.5 u/l
- Sodium ([1]; 15 mg/kg weekly, WEEK 1): 154.5 meq/l
- WBC ([1]; 15 mg/kg weekly, WEEK 1): 2 thds/cmm
- BUN ([1]; 15 mg/kg weekly, WEEK 3): 22 mg/dL
- Calcium ([1]; 15 mg/kg weekly, WEEK 3): 7.73 mg/dL
- Chloride ([1]; 15 mg/kg weekly, WEEK 3): 87.5 meq/l
- MCH ([1]; 15 mg/kg weekly, WEEK 3): 16.56 pg
- MCV ([1]; 15 mg/kg weekly, WEEK 3): 56.556 fL
- Potassium ([1]; 15 mg/kg weekly, WEEK 3): 8.7 meq/l
- SGOT ([1]; 15 mg/kg weekly, WEEK 3): 1194 u/l
- SGPT ([1]; 15 mg/kg weekly, WEEK 3): 120.3 u/l
- Sodium ([1]; 15 mg/kg weekly, WEEK 3): 156.5 meq/l
- WBC ([1]; 15 mg/kg weekly, WEEK 3): 2.1 thds/cmm
- BUN ([1]; 15 mg/kg weekly, WEEK 4): 20.33 mg/dL
- Calcium ([1]; 15 mg/kg weekly, WEEK 4): 6.7 mg/dL
- Chloride ([1]; 15 mg/kg weekly, WEEK 4): 81.66 meq/l
- MCH ([1]; 15 mg/kg weekly, WEEK 4): 14.2 pg
- MCV ([1]; 15 mg/kg weekly, WEEK 4): 51 fL
- Potassium ([1]; 15 mg/kg weekly, WEEK 4): 13.46 meq/l
- SGOT ([1]; 15 mg/kg weekly, WEEK 4): 1669.5 u/l
- SGPT ([1]; 15 mg/kg weekly, WEEK 4): 123.66 u/l
- Sodium ([1]; 15 mg/kg weekly, WEEK 4): 165.6 meq/l
- WBC ([1]; 15 mg/kg weekly, WEEK 4): 1.85 thds/cmm
- overall toxicity ([1]; 10 and 15 mg/kg weekly): mild at best
